Assays:
[1] = molecular target: Carcinoembryonic antigen (CEA) (UniProt P06731); assay: SPR (Biacore 2000), oxidised CEA immobilised on CM5 chip, Fab′ injected
[2] = molecular target: Carcinoembryonic antigen (CEA) (UniProt P06731); assay: SPR (Biacore 2000), oxidised CEA immobilised; relative to unmodified hA5B7 Fab′
[3] = molecular target: T1, human TNF (human, UniProt P01375 77-233); assay: BIAcore as in Example 3: sample captured by anti-Fab′ antibody, human TNF passed over
T1 construct: Soluble human TNF, used in the L929 assay and passed over captured antibody in BIAcore; also called human TNFα
T1 sequence (P01375 77-233 limits assumed): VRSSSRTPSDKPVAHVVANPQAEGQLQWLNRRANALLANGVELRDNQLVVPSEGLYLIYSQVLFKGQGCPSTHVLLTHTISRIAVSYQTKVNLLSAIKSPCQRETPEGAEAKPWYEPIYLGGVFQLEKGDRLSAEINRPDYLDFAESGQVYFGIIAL

Chain of Carcinoembryonic antigen (CEA) (P06731 35-685 limits assumed): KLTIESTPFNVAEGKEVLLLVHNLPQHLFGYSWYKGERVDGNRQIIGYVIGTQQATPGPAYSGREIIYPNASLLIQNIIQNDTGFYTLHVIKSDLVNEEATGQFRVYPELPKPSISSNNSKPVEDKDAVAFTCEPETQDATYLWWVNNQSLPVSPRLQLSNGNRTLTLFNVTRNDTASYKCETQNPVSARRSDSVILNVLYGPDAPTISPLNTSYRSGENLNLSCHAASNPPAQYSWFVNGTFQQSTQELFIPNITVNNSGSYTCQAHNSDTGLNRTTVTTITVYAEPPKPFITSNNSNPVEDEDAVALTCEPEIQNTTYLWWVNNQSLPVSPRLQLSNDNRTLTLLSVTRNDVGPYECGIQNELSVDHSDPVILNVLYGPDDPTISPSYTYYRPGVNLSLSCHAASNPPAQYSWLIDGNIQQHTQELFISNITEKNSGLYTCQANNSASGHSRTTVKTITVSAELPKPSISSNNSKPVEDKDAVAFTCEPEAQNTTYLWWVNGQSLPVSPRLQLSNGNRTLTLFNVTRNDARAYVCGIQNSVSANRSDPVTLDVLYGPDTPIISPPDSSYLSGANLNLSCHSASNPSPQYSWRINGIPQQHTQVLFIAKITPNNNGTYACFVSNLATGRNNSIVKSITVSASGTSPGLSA

Row | Kd [1] [nM] | koff [1] [s⁻¹] | kon [1] [M⁻¹ s⁻¹] | Immunoreactivity [2] [%] | Kd [3] [nM] | Molecule
1 | 1.87 | 0.000161 | 86000 | 100 | – | hA5B7 Fab′ (unmodified)
2 | – | – | – | – | 0.156 | hTNF40 IgG (antibody, V domains shown) VH: QIQLVQSGPELKKPGETVKISCKASGYVFTDYGMNWVKQAPGKAFKWMGWINTYIGEPIYVDDFKGRFAFSLETSASTAFLQINNLKNEDTATYFCARGYRSYAMDYWGQGTSVTVSS VL: DIVMTQSQKFMSTSVGDRVSVTCKATQNVGTNVAWYQQKPGQSPKALIYSASFLYSGVPYRFTGSGSGTDFTLTISTVQSEDLAEYFCQQYNIYPLTFGAGTKLELKR

— US20040121415A1 (published 2004)
